Data on seven molecules can be found in publication PMC4757822, “Structural and biochemical characterization of an RNA/DNA binding motif in the N-terminal domain of RecQ4 helicases”.

Data set [1] concerns xUpZnK (upstream Sld2-like region + Zn knuckle) (Xenopus laevis). The data set can be described thus: EMSA. The note with it: 20 mM Tris-HCl pH 7.5, 2 mM MgCl2, 50 mM NaCl, 5% glycerol, 1 mM DTT, 5 mM ZnCl2, 0.1 mg/ml BSA, 10 nM probe, 30 min room temperature; 6% native gel in TBE at …. In general terms: In EMSA bound probe runs differently from free probe, usually more slowly.

Data set [2] has as its target T1, hZnK (RecQ4 Zn knuckle) (human, UniProt O94761 394-427).
T1 chain: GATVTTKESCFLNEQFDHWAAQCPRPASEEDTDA
The experiment in a line: EMSA. The note with it: 20 mM Tris-HCl pH 7.5, 2 mM MgCl2, 50 mM NaCl, 5% glycerol, 1 mM DTT, 5 mM ZnCl2, 0.1 mg/ml BSA, 10 nM probe, 30 min room temperature; 6% native gel in TBE at ….

For data set [3], the target named is T2, hUpZnK (upstream Sld2-like region + Zn knuckle) (human) (UniProt O94761).
T2 sequence: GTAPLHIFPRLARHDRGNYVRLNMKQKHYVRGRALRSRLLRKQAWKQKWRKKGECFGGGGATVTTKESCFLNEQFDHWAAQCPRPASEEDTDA
The data set can be described thus: EMSA. The note with it: 20 mM Tris-HCl pH 7.5, 2 mM MgCl2, 50 mM NaCl, 5% glycerol, 1 mM DTT, 5 mM ZnCl2, 0.1 mg/ml BSA, 10 nM probe, 30 min room temperature; 6% native gel in TBE at ….

The target in data set [4] is T3, hUpZnK (upstream Sld2-like region + Zn knuckle) (human, UniProt O94761 335-427).
T3 sequence: T2 sequence
The experiment in a line: EMSA; 5 mM ZnCl2, 2 mM Mg2+; 20 mM Tris-HCl pH 7.5, 2 mM MgCl2, 50 mM NaCl, 5% glycerol, 1 mM DTT, 5 mM ZnCl2, 0.1 mg/ml BSA, 10 nM probe, 30 min room temperature; 6% native gel in TBE at 4 C. The settings on record: protein: recombinant, tags: N-terminal 6His-GST (not cleaved), label: 5'-32P on one strand, fork.

The target in data set [5] is T1, hZnK (RecQ4 Zn knuckle). The description is as above. The settings on record: protein: recombinant, tags: N-terminal 6His-GST (not cleaved), label: 5'-32P on one strand, fork.
The target of data set [6] is T3, hUpZnK (upstream Sld2-like region + Zn …). The experiment in a line: EMSA; 20 mM Tris-HCl pH 7.5, 2 mM MgCl2, 50 mM NaCl, 5% glycerol, 1 mM DTT, 5 mM ZnCl2, 0.1 mg/ml BSA, 10 nM probe, 30 min room temperature; 6% native gel in TBE at 4 C. The settings on record: protein: recombinant; tags: N-terminal 6His-GST (not cleaved); label: 5'-32P on one strand; blunt.
Data set [7] addresses T1, hZnK (RecQ4 Zn knuckle). The description is as above. The note with it: protein: recombinant; tags: N-terminal 6His-GST (not cleaved); label: 5'-32P on one strand; blunt.
Where [8] appears, read: 22 bp plus 15 nt unpaired U arms (3' arm of A3, 5' arm of A4).
Where [9] appears, read: 22 bp plus 15 nt unpaired T arms (3' arm of A1, 5' arm of A2).

Turning to “GTAGTGCATGTACACCACACTCTTTTTTTTTTTTTTT / TTTTTTTTTTTTTTTGAGTGTGGTGTACATGCACTAC [forkDNA (A1+A2)]”, in data set [1], the Kd (usually the equilibrium constant for the complex coming apart) was found to be 14 nM.
With “GUAGUGCAUGUACACCACACUCUUUUUUUUUUUUUUU / UUUUUUUUUUUUUUUGAGUGUGGUGUACAUGCACUAC [forkRNA (A3+A4)]”, in data set [1], the dissociation constant Kd came to 5.4 nM.
For the molecule ssDNA, the Kd in data set [2] turned out to be 500 nM; in data set [3], 185 nM; in data set [1], 25 nM.
Regarding ssRNA, the equilibrium dissociation constant (Kd) was 220 nM in data set [2], 11 nM in data set [3] and 7.3 nM in data set [1].

B1: forkRNA (A3+A4) (dsRNA)
RNA 1: GUAGUGCAUGUACACCACACUCUUUUUUUUUUUUUUU
RNA 2: UUUUUUUUUUUUUUUGAGUGUGGUGUACAUGCACUAC
B1: the Kd in data set [4] (setting [8]) is 13 ± 1.1 nM; in data set [5] (setting [8]) it was about 130 nM.

B2: forkDNA (A1+A2) (dsDNA)
DNA 1: GTAGTGCATGTACACCACACTCTTTTTTTTTTTTTTT
DNA 2: TTTTTTTTTTTTTTTGAGTGTGGTGTACATGCACTAC
Regarding B2, the Kd in data set [4] (setting [9]) was 42 ± 2.8 nM; in data set [5] (setting [9]), about 270 nM.

B3: 22 bp dsDNA (annealed region of fork) (dsDNA)
DNA 1: GTAGTGCATGTACACCACACTC
DNA 2: GAGTGTGGTGTACATGCACTAC
Regarding B3, the binding result in data set [6] and in data set [7] was “no binding” in each case.
